# Assay results taken from patent US20030232013A1, “Therapeutic and diagnostic targeting of cancers cells with tumor homing peptides” (priority 2002, published 2003).
# Read-outs that look alike come from different tables or passages of the source. Bridge positions count the residues as written; N and C are the ends. Peptide text beside a SMILES is read from it. * marks the point of attachment. DOTA = O=C(O)CN1CCN(CC(=O)O)CCN(CC(=O)*)CCN(CC(=O)O)CC1
# Experiments:
# [1] = test system: T47D tumor bearing SCID mice; assay: In vivo biodistribution in T47D tumor bearing SCID mice; details: 4 hours post-injection, n = 4
# Excerpt: (§1) In vivo iodistribution studies. Four- to 5-week old female ICR SCID ([…]) outbred mice were obtained from Taconic (Germantown, N.Y.). The mice were housed five animals per cage in sterile micro isolator cages in a temperature- and humidity-controlled room with a 12-hour light/12-hour dark schedule. The animals were fed autoclaved rodent chow (Ralston Purina Company, St. Louis, Mo.) and water ad libitum. Animals were housed one week prior to inoculation of tumor cells and anesthetized for injections with isoflurane (Baxter Healthcare Corp., Deerfield, Ill.) at a rate of 2.5% with 0.4L oxygen through a non-rebreathing anesthesia vaporizer.
# (§2) Human breast cancer MB231 and T47D cells were injected on the bilateral subcutaneous (s.c.) flank with ˜5×10^6 cells in a suspension of 100 μl normal sterile saline per injection site. MB231 and T47D cells were allowed to grow in vivo two to three weeks post inoculation developing tumors ranging in sizes from 0.02-1.30 grams. The biodistribution and uptake of ^111In-DOTA-Phe^19-STh or ^111In-DOTA-6-Ahx-Phe^19-STh in tumor bearing SCID mice was studied. The mice (average weight, 25 g) were injected with aliquots (50-100 μl) of the radiolabeled peptide solution (55-75 kBq) in each animal via the tail vein. Tissues, organs and tumors were excised from the animals sacrificed at 1 hr, 4 hrs and 24 hrs p.i. For blocking studies, an access of non-radioactive 6-Ahx-Phe^19-STh (100 μg) was also injected along with the radiolabeled peptide solution. The radioactivity was measured in a NaI counter and the percent-injected dose per organ and the percent-injected dose per gram tissue were calculated (Tables 5 and 6). Animal studies were conducted in accordance with the highest standards of care as outlined in the NIH guide for Care and Use of Laboratory Animals and the Policy and Procedures for Animal Research at the Harry S. Truman Memorial VA Hospital and according to approved protocols.
# [2] = as above; details: female, ICR SCID, mouse, iv, total radioactivity, n = 4; for tissue uptake at 1 h / dose excreted at 1 h: 1 hour post-injection; for tissue uptake at 24 h / dose excreted at 24 h: 24 hours post-injection
# Excerpt: as §1, §2
# [3] = T47D tumor, T47D tumor, read-out: biodistribution, Tumor
# [4] = blood, read-out: biodistribution, Blood
# [5] = heart, read-out: biodistribution, Heart
# [6] = kidney, read-out: biodistribution, Kidney
# [7] = large intestine, read-out: biodistribution, Large Intestine
# [8] = liver, read-out: biodistribution, Liver
# [9] = lung, read-out: biodistribution, Lung
# [10] = muscle, read-out: biodistribution, Muscle
# [11] = pancreas, read-out: biodistribution, Pancreas
# [12] = small intestine, read-out: biodistribution, Small Intestine
# [13] = spleen, read-out: biodistribution, Spleen
# [14] = stomach, read-out: biodistribution, Stomach
# [15] = urine, read-out: biodistribution, Urine (Avg % ID)
smiles,measurement,setting,value
"CC(C)C[C@@H]1NC(=O)[C@H](CCC(=O)O)NC(=O)[C@@H]2CSSC[C@@H]3NC(=O)[C@H](C)NC(=O)[C@@H]4CCCN4C(=O)[C@H](CC(N)=O)NC(=O)[C@H](CSSC[C@H](NC(=O)[C@H](Cc4ccc(O)cc4)NC(=O)[C@H](CC(N)=O)NC(=O)[C@H](CO)NC(=O)[C@H](CO)NC(=O)[C@H](CC(N)=O)NC(=O)CN4CCN(CC(=O)O)CCN(CC(=O)O)CCN(CC(=O)O)CC4)C(=O)N2)NC(=O)[C@H](CSSC[C@@H](C(=O)N[C@@H](Cc2ccccc2)C(=O)O)NC(=O)CNC(=O)[C@H]([C@@H](C)O)NC3=O)NC1=O [^111In-DOTA-Phe^19-STh, metal not drawn] ({DOTA}-NSSNYCCELCCNPACTGCF-OH; disulfide 6-11, 7-15, 10-18)","biodistribution, Heart",[1],0.00 ± 0.00 % ID/gm
same,tissue uptake at 1 h,"[2]; T47D tumor, T47D tumor, Blocking (100 μg non-radioactive 6-Ahx-Phe^19-STh co-injected), read-out: biodistribution, Tumor",0.43 ± 0.2 %ID/g
same,tissue uptake at 1 h,[2]; [3],0.67 ± 0.23 %ID/g
same,tissue uptake at 4 h,"[2]; T47D tumor, T47D tumor, 4 hours post-injection, read-out: biodistribution, Tumor",0.17 ± 0.16 %ID/g
same,tissue uptake at 24 h,[2]; [3],0.14 ± 0.12 %ID/g
same,tissue uptake at 1 h,"[2]; blood, Blocking (100 μg non-radioactive 6-Ahx-Phe^19-STh co-injected), read-out: biodistribution, Blood",0.57 ± 0.19 %ID/g
same,tissue uptake at 1 h,[2]; [4],0.82 ± 0.34 %ID/g
same,tissue uptake at 4 h,"[2]; blood, 4 hours post-injection, read-out: biodistribution, Blood",0.01 ± 0.01 %ID/g
same,tissue uptake at 24 h,[2]; [4],0.02 ± 0.01 %ID/g
same,dose excreted at 24 h,"[2]; faeces, read-out: biodistribution, Feces (Avg % ID)",1.4 ± 0.7%
same,tissue uptake at 1 h,"[2]; heart, Blocking (100 μg non-radioactive 6-Ahx-Phe^19-STh co-injected), read-out: biodistribution, Heart",0.13 ± 0.1 %ID/g
same,tissue uptake at 1 h,[2]; [5],0.15 ± 0.11 %ID/g
same,tissue uptake at 24 h,[2]; [5],0.08 ± 0.08 %ID/g
same,tissue uptake at 1 h,"[2]; kidney, Blocking (100 μg non-radioactive 6-Ahx-Phe^19-STh co-injected), read-out: biodistribution, Kidney",5.88 ± 1.47 %ID/g
same,tissue uptake at 1 h,[2]; [6],4.7 ± 1.4 %ID/g
same,tissue uptake at 4 h,"[2]; kidney, 4 hours post-injection, read-out: biodistribution, Kidney",2.02 ± 0.35 %ID/g
same,tissue uptake at 24 h,[2]; [6],1.04 ± 0.33 %ID/g
same,tissue uptake at 1 h,"[2]; large intestine, Blocking (100 μg non-radioactive 6-Ahx-Phe^19-STh co-injected), read-out: biodistribution, Large Intestine",0.17 ± 0.06 %ID/g
same,tissue uptake at 1 h,[2]; [7],0.57 ± 0.21 %ID/g
same,tissue uptake at 4 h,"[2]; large intestine, 4 hours post-injection, read-out: biodistribution, Large Intestine",1.74 ± 1.04 %ID/g
same,tissue uptake at 24 h,[2]; [7],0.1 ± 0.03 %ID/g
same,tissue uptake at 1 h,"[2]; liver, Blocking (100 μg non-radioactive 6-Ahx-Phe^19-STh co-injected), read-out: biodistribution, Liver",0.19 ± 0.04 %ID/g
same,tissue uptake at 1 h,[2]; [8],0.26 ± 0.12 %ID/g
same,tissue uptake at 4 h,"[2]; liver, 4 hours post-injection, read-out: biodistribution, Liver",0.06 ± 0.01 %ID/g
same,tissue uptake at 24 h,[2]; [8],0.03 ± 0.01 %ID/g
same,tissue uptake at 1 h,"[2]; lung, Blocking (100 μg non-radioactive 6-Ahx-Phe^19-STh co-injected), read-out: biodistribution, Lung",0.45 ± 0.16 %ID/g
same,tissue uptake at 1 h,[2]; [9],0.56 ± 0.19 %ID/g
same,tissue uptake at 4 h,"[2]; lung, 4 hours post-injection, read-out: biodistribution, Lung",0.09 ± 0.06 %ID/g
same,tissue uptake at 24 h,[2]; [9],0.06 ± 0.03 %ID/g
same,tissue uptake at 1 h,"[2]; muscle, Blocking (100 μg non-radioactive 6-Ahx-Phe^19-STh co-injected), read-out: biodistribution, Muscle",0.18 ± 0.08 %ID/g
same,tissue uptake at 1 h,[2]; [10],0.19 ± 0.08 %ID/g
same,tissue uptake at 4 h,"[2]; muscle, 4 hours post-injection, read-out: biodistribution, Muscle",0.06 ± 0.04 %ID/g
same,tissue uptake at 24 h,[2]; [10],0.04 ± 0.03 %ID/g
same,tissue uptake at 1 h,"[2]; pancreas, Blocking (100 μg non-radioactive 6-Ahx-Phe^19-STh co-injected), read-out: biodistribution, Pancreas",0.16 ± 0.07 %ID/g
same,tissue uptake at 1 h,[2]; [11],0.21 ± 0.09 %ID/g
same,tissue uptake at 4 h,"[2]; pancreas, 4 hours post-injection, read-out: biodistribution, Pancreas",0.04 ± 0.05 %ID/g
same,tissue uptake at 24 h,[2]; [11],0.02 ± 0.03 %ID/g
same,tissue uptake at 1 h,"[2]; small intestine, Blocking (100 μg non-radioactive 6-Ahx-Phe^19-STh co-injected), read-out: biodistribution, Small Intestine",0.25 ± 0.1 %ID/g
same,tissue uptake at 1 h,[2]; [12],1.37 ± 0.55 %ID/g
same,tissue uptake at 4 h,"[2]; small intestine, 4 hours post-injection, read-out: biodistribution, Small Intestine",0.44 ± 0.07 %ID/g
same,tissue uptake at 24 h,[2]; [12],0.09 ± 0.02 %ID/g
same,tissue uptake at 1 h,"[2]; spleen, Blocking (100 μg non-radioactive 6-Ahx-Phe^19-STh co-injected), read-out: biodistribution, Spleen",0.12 ± 0.07 %ID/g
same,tissue uptake at 1 h,[2]; [13],0.19 ± 0.16 %ID/g
same,tissue uptake at 4 h,"[2]; spleen, 4 hours post-injection, read-out: biodistribution, Spleen",0.13 ± 0.15 %ID/g
same,tissue uptake at 24 h,[2]; [13],0.12 ± 0.08 %ID/g
same,tissue uptake at 1 h,"[2]; stomach, Blocking (100 μg non-radioactive 6-Ahx-Phe^19-STh co-injected), read-out: biodistribution, Stomach",0.61 ± 0.64 %ID/g
same,tissue uptake at 1 h,[2]; [14],0.53 ± 0.47 %ID/g
same,tissue uptake at 4 h,"[2]; stomach, 4 hours post-injection, read-out: biodistribution, Stomach",0.17 ± 0.06 %ID/g
same,tissue uptake at 24 h,[2]; [14],0.02 ± 0.01 %ID/g
same,dose excreted at 1 h,"[2]; urine, Blocking (100 μg non-radioactive 6-Ahx-Phe^19-STh co-injected), read-out: biodistribution, Urine (Avg % ID)",93.1 ± 1.5%
same,dose excreted at 1 h,[2]; [15],86.4 ± 5%
same,dose excreted at 4 h,"[2]; urine, 4 hours post-injection, read-out: biodistribution, Urine (Avg % ID)",96.1 ± 1%
same,dose excreted at 24 h,[2]; [15],97.8 ± 0.7%
